Assay in all cases: cryo-EM structure
Test [1] deals with CUS-3 portal protein (gp1 by the name of the P22 homologue) (bacteriophage CUS-3).
Test [2] concerns the target CUS-3 coat protein (CP, major capsid protein; gp5 by the name of the P22 homologue) (bacteriophage CUS-3).
Test [3] has as its target CUS-3 tailspike protein (gp9 by the name of the P22 homologue) (bacteriophage CUS-3).
In test [4] the target is CUS-3 tail needle protein (gp26 by the name of the P22 homologue) (bacteriophage CUS-3).

Values joined by “and” are separate entries in the source; they are usually repeats but may differ in a detail not shown here. Equal values may be shown once.

In test [1], “CUS-3 portal protein (gp1 by the name of the P22 homologue) (natural protein)” displayed a stoichiometry N of 12. For “CUS-3 coat protein (CP, major capsid protein; gp5 by the name of the P22 homologue) (natural protein)”, in test [2], the stoichiometry N was 5 and 6. “CUS-3 tailspike protein (gp9 by the name of the P22 homologue) (natural protein)”: the stoichiometry N in test [3] was found to be 3. Turning to “CUS-3 tail needle protein (gp26 by the name of the P22 homologue) (natural protein)”, the stoichiometry N in test [4] turned out to be 3.
